Laboratory results from PMC9741652 (2022).
Like-named read-outs stand apart in the source and are kept apart here.

Key:
Assay in all cases: ITC
[1] = target: ZYG11B (residues 490–728) (UniProt Q9C0D3 490-728)
[2] = target: T1, ZER1 (residues 469–766) (human, UniProt Q7Z7L7 469-766)
T1 chain: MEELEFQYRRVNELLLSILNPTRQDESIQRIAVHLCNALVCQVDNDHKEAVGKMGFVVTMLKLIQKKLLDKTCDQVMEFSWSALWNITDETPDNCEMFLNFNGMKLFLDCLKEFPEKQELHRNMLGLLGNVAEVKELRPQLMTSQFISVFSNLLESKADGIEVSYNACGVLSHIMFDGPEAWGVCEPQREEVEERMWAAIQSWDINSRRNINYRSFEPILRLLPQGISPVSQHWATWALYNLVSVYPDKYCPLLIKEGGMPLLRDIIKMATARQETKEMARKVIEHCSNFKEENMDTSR

[3] = target: ZYG11B (residues 490–728) N523A (UniProt Q9C0D3 490-728, N523A)
ZYG11B (residues 490–728) N523A, sequence (Q9C0D3 other isoform, or with tags, fused parts or gaps N523A | N523A): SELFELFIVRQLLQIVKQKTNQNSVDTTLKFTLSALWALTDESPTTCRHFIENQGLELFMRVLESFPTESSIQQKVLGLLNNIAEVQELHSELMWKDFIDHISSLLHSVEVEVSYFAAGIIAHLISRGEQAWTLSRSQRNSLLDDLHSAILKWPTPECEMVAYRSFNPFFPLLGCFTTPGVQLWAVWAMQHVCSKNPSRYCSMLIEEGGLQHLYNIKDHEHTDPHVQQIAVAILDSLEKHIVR

[4] = target: T2, ZER1 (residues 469–766) N553A (human, UniProt Q7Z7L7 469-766, N553A)
T2 sequence (Q7Z7L7 other isoform, or with tags, fused parts or gaps N553A | N553A): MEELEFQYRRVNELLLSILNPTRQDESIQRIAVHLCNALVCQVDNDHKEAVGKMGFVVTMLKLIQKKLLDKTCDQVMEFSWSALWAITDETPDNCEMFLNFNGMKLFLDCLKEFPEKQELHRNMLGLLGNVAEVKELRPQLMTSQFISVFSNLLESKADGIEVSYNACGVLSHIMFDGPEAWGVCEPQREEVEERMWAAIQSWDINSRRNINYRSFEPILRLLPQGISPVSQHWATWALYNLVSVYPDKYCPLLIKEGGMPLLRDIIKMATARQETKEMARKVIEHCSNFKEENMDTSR

[5] = target: T1, ZER1 (residues 469–766)
[6] = target: T2, ZER1 (residues 469–766) N553A; remark: listed apart in the source

ZYG11B (residues 490–728), sequence (Q9C0D3 other isoform, or with tags, fused parts or gaps): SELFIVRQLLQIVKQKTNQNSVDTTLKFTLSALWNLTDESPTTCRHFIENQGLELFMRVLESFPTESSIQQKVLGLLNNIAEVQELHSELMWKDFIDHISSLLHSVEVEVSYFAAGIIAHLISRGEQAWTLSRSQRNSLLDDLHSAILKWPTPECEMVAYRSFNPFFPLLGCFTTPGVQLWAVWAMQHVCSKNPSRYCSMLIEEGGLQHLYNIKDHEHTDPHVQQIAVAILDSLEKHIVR

B1: CFLHVGQD peptide (peptide)
peptide: CFLHVGQD
modifications: Printed N-terminus SELF is read as vector Ser plus native E490-L491-F492 (numbering from the 7XYW entity, 485-728 starting AQLGTELF); His-SUMO tag left out
With B1 the Kd [1] was 3 µM.

B2: AFLHVGQD peptide (peptide)
peptide: AFLHVGQD
modifications: Printed N-terminus MEEL is read as start Met plus native residues from 469 (by analogy with SELF in ZYG11B); C-terminal His tag of pNIC-CH left out
B2 showed a Kd [2] of 1.6 µM.

B3: SFLHVGQD peptide (peptide)
peptide: SFLHVGQD
B3 was tested, and the Kd [3] was 4.9 µM.

B4: GFLHVGQD peptide (peptide)
peptide: GFLHVGQD
modifications: Printed N-terminus SELF is read as vector Ser plus native E490-L491-F492 (numbering from the 7XYW entity, 485-728 starting AQLGTELF); His-SUMO tag left out
In the case of B4, the Kd [1] is reported as 2.5 µM.

B5: TFLHVGQD peptide (peptide)
peptide: TFLHVGQD
modifications: N-terminus MEEL read as start Met plus native residues from 469; His tag left out
B5 gave a Kd [4] of 7.9 µM.

B6: TFLHVGQD peptide (peptide)
peptide: TFLHVGQD
modifications: Printed N-terminus MEEL is read as start Met plus native residues from 469 (by analogy with SELF in ZYG11B); C-terminal His tag of pNIC-CH left out
B6 was tested, and the Kd [2] was 3.1 µM.

B7: AFLHVGQD peptide (peptide)
peptide: AFLHVGQD
B7 was tested, and the Kd [3] was > 50 µM.

B8: AFLHVGQD peptide (peptide)
peptide: AFLHVGQD
modifications: N-terminus MEEL read as start Met plus native residues from 469; His tag left out
With B8 the Kd [4] was 7.6 µM.

B9: free H2A peptide (sequence: SGRGKQGGKA) (peptide)
peptide: SGRGKQGGKA
modifications: Printed N-terminus MEEL is read as start Met plus native residues from 469 (by analogy with SELF in ZYG11B); C-terminal His tag of pNIC-CH left out
In the case of B9, the Kd [5] is reported as 3.8 µM.

B10: SFLHVGQD peptide (peptide)
peptide: SFLHVGQD
modifications: Printed N-terminus MEEL is read as start Met plus native residues from 469 (by analogy with SELF in ZYG11B); C-terminal His tag of pNIC-CH left out
B10 gave a Kd [2] of 1.3 µM.

B11: SFLHVGQD peptide (peptide)
peptide: SFLHVGQD
modifications: Printed N-terminus SELF is read as vector Ser plus native E490-L491-F492 (numbering from the 7XYW entity, 485-728 starting AQLGTELF); His-SUMO tag left out
B11 gave a Kd [1] of 6.8 µM.

B12: AFLHVGQD peptide (peptide)
peptide: AFLHVGQD
modifications: Printed N-terminus SELF is read as vector Ser plus native E490-L491-F492 (numbering from the 7XYW entity, 485-728 starting AQLGTELF); His-SUMO tag left out
With B12 the Kd [1] was 7.1 µM.

B13: GFLHVGQD peptide (peptide)
peptide: GFLHVGQD
modifications: Printed N-terminus MEEL is read as start Met plus native residues from 469 (by analogy with SELF in ZYG11B); C-terminal His tag of pNIC-CH left out
With B13 the Kd [2] was 4.2 µM.

B14: CFLHVGQD peptide (peptide)
peptide: CFLHVGQD
Work on B14 yielded a Kd [3] of 2.9 µM.

B15: CFLHVGQD peptide (peptide)
peptide: CFLHVGQD
modifications: Printed N-terminus MEEL is read as start Met plus native residues from 469 (by analogy with SELF in ZYG11B); C-terminal His tag of pNIC-CH left out
Work on B15 yielded a Kd [2] of 3.9 µM.

B16: SFLHVGQD peptide (peptide)
peptide: SFLHVGQD
modifications: N-terminus MEEL read as start Met plus native residues from 469; His tag left out
Binder B16 has a Kd [6] of 7.1 µM.
